Laboratory results published in patent US20250296994A1 (SYSMEX, published 2025).

Experiments:
[1] = biological target: T1, recombinant Crtac1B fragment #6 (human, UniProt Q9NQ79 28-606); assay: antigen immobilized ELISA, hybridoma culture supernatant, color development at 655 nm same as plate without antigen
T1 construct: also called fCrtac1B (1-607)
T1 sequence: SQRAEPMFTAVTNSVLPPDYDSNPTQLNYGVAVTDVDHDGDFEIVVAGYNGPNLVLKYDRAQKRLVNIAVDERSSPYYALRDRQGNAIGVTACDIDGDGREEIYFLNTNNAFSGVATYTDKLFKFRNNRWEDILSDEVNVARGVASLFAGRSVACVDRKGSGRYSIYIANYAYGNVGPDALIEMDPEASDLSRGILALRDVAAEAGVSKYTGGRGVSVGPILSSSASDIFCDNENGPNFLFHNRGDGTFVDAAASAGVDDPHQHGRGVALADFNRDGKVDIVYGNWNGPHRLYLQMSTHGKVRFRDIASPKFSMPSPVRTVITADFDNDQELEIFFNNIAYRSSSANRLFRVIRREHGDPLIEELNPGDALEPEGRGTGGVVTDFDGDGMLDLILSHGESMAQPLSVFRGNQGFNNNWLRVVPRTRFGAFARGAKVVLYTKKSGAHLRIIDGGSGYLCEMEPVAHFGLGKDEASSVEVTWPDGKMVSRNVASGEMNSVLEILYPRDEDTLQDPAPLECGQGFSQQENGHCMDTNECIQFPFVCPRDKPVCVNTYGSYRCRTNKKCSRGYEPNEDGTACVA
Description: (§1) A positive antigen (50 μL) and a negative control (50 μL) were added to each well of a 96 well plate, respectively. Then, the plate was incubated at 4° C. overnight, and the positive antigen and the negative control were immobilized in the well to obtain an antigen immobilized plate. Each well was washed twice with a washing solution (250 μL, 0.05% Tween (registered trademark) 20/20 mM potassium phosphate buffer (pH 7.4), 150 mM NaCl). To each well was added a blocking buffer (250 μL, 5% skim milk/20 mM potassium phosphate buffer (pH 7.4), 150 mM NaCl), and blocked at room temperature for 90 minutes. Culture supernatant (50 μL) of each hybridoma selected by primary screening was added to each well, and the cells were incubated at 37° C. for 1 hour. Each well was washed three times with a washing solution (250 μL). The HRP-labeled anti-mouse IgG antibody (MBL, product number 330) was diluted 1:1,000 with dilution buffer II (1% skim milk/20 mM potassium phosphate buffer (pH 7.4), 150 mM NaCl). A solution (50 μL) of this labeled antibody was added to each well, and the well was incubated at 37° C. for 1 hour. Each well was washed five times with a washing solution (250 μL). Chemical chromogenic substrate solutions (Bio-Rad, TMB Peroxidase EIA Substrate Kit) were added to respective wells at 50 μL, and the plate was allowed to stand at room temperature under shading for 30 minutes. The plate was set in a microplate reader (Thermo Fisher Scientific, Varioskan (registered trademark) Flash), and the color development intensity at 655 nm was measured for each well.
(§2) Reactivity of the monoclonal antibody contained in the culture supernatant of the hybridomas of clones 1B4 and 15C2 to the antigen was confirmed by ELISA using the 7 recombinant Crtac1B fragments described above. A specific operation was the same as that of the antigen immobilized ELISA method of Example 1. For comparison, ELISA was performed in the same manner using a 96 well plate in which no antigen was immobilized.
(§3) In addition, as to these monoclonal antibodies, the color development intensity when the recombinant Crtac1B fragments of #6 and #7 were used was substantially the same as that when a plate without immobilizing the antigen was used.

[2] = biological target: T2, recombinant Crtac1B fragment #7 (negative control) (human, UniProt Q9NQ79 28-606); assay: as above
T2 construct: also called fCrtac1B (1-606)
T2 sequence: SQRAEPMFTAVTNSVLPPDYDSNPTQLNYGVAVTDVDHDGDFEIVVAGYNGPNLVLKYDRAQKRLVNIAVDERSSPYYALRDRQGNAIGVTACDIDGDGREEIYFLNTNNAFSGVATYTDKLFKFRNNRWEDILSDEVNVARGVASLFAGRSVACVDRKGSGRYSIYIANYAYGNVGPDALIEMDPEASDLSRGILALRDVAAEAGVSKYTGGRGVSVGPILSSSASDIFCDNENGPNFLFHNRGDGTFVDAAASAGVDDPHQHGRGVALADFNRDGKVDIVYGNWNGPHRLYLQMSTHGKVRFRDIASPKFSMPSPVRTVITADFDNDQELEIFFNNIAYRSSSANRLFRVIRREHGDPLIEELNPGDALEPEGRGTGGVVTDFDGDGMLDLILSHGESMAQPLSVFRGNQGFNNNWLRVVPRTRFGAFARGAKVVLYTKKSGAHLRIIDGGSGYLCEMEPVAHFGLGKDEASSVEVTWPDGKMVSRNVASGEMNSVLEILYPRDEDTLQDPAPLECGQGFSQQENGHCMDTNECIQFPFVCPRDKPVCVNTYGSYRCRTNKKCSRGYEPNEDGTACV
Description: as §1, §2, §3

[3] = biological target: T3, human Crtac1A (human, UniProt Q9NQ79 28-661); assay: immunoprecipitation from human CSF and serum, then immunoblotting (Wes)
T3 construct: Recombinant protein (IB control sample) or native protein in human CSF and serum; also called rCrtac1A
T3 sequence: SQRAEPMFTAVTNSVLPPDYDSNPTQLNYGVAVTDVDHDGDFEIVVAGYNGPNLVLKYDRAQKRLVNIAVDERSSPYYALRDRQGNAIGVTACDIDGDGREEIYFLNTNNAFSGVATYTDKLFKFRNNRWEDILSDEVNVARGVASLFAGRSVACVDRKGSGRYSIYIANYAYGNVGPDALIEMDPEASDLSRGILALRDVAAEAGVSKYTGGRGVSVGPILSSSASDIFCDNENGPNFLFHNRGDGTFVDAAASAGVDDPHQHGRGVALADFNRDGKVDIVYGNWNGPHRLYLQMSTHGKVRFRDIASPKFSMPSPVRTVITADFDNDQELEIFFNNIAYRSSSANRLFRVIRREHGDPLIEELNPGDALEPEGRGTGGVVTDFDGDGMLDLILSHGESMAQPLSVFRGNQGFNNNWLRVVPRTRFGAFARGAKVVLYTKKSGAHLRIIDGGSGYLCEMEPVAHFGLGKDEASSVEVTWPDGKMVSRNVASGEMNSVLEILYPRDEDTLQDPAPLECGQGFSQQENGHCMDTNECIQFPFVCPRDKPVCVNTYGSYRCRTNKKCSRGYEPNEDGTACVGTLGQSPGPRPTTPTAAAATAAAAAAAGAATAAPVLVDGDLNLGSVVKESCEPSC
Description: For human CSF and human serum, immunoprecipitation using a monoclonal antibody purified from the culture supernatant of hybridomas of clones 1B4 and 15C2 was performed, and IB analysis by Wes was performed. For comparison, immunoprecipitation (IP) using an anti-hCrtac1 antibody (RD) and IB analysis using an anti-rat LOTUS antibody (ITM, 45-12C) were performed.
As a sample, CSF (300 μL) and serum (500 μL) were used per antibody. Each sample and protein G sepharose were mixed and rotated at 4° C. for 1 hour to remove contaminants that non-specifically bind to protein G from each sample in advance. Protein G solid phase-treated magnetic particles (60 μL, Veritas, Dynabeads (registered trademark) Protein G) were dispensed into 1.5-mL tubes, and washed twice with dilution buffer III (500 μL, 0.02% Tween (registered trademark) 20/PBS (pH 7.4)). Magnetic collection was performed to remove the supernatant, and each antibody (24 μg) and the above dilution buffer III (200 μL) were added to the magnetic particles. The tube was stirred at room temperature for 1 hour, and then collected to remove the supernatant. The magnetic particles were washed five times with the above dilution buffer III (300 μL), and then collected to remove supernatant. Each sample from which impurities were removed was added to the magnetic particles, and the tube was stirred at room temperature for 5 hours. […]

Measured: binding result

B1: monoclonal antibody derived from the hybridoma of clone 1B4 (antibody, mouse IgG1, kappa, V domains shown)
VH: EVQLQQFGAELVKPGASVKISCKASGYTFTDYNMDWVKQSHGKSLEWIGDINPNYDSSSYNQKFKGKATLTVDKSSSTAYMELRSLTSEDTAVYYCTRSGGTYWGQGTLVTVSA
VL: DIQMNQSPSSLSASLGDTITITCHASQNINVWLSWYQQKPGNIPKLLIYKASNLHTGVPSRFSGSGSGTGFSLTISSLQPEDIATYYCQQAQSYPRTFGGGTKLEIKR
notes: It is kept apart because the two clones were tested separately; Mouse IgG1; Leader ranges were derived as for m1
no binding: all assays above
